One block for each binder: values may come before it.
Legend:
[1] = molecular target: T1, full-length isoform 2 ECD of cynomolgus monkey CD96 (His-tagged) (cynomolgus monkey); assay: SPR Biacore T200, Protein A capture, 1:1 model, experiment #1
T1 construct: also called His-tagged isoform 2 of cynomolgus monkey CD96; cyno CD96 extracellular domain isoform 2
T1 chain: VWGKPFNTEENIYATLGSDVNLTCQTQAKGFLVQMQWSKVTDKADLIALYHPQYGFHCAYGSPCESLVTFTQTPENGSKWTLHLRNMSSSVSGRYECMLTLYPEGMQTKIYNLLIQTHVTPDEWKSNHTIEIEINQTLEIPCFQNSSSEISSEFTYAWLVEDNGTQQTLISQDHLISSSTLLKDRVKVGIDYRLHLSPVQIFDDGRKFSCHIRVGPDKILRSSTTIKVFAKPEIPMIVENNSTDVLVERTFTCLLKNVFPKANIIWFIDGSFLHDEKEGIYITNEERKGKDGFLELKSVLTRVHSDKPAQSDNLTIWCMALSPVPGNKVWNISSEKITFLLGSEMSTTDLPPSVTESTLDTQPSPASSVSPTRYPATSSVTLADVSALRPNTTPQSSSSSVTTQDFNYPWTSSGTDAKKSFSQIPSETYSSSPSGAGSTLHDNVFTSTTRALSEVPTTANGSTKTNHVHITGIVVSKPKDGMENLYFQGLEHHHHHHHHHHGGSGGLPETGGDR
Method: Briefly, surface plasmon resonance experiments were performed using a Biacore T200 instrument, and the association rate (kₐ), dissociation rate (kd), and dissociation constant (KD) were calculated from each experiment using a 1:1 binding model with Biacore T200 Evaluation Software.
Multispecific molecules were captured using a 30-sec injection at a flow rate of 10 μl/min to reach about 350 resonance units (RUs). […] The sensor chip was regenerated between cycles with two 30-sec injections of 10 mM glycine, pH 1.5. Sensorgrams were evaluated and fit to a simple Langmuir 1:1 interaction model using the global data analysis option of BIAevaluation 3.0 software. Data quality was verified by visually inspecting deviations and curve fitting, and by evaluating the parameters of Rₘₐₓ, Chi2, and Tc.

[2] = molecular target: T2, wild type full-length cynomolgus monkey CD96 isoform 2 expressed on CHO cells (cynomolgus monkey, UniProt A0A2K5TWV6 22-569); assay: flow cytometry, cynomolgus CD96 (isoform 2) CHO cells, 1 experiment
T2 construct: whole, on cells; also called cynomolgus CD96-CHO cells; cynomolgus CD96-CHO (isoform 2)
T2 sequence: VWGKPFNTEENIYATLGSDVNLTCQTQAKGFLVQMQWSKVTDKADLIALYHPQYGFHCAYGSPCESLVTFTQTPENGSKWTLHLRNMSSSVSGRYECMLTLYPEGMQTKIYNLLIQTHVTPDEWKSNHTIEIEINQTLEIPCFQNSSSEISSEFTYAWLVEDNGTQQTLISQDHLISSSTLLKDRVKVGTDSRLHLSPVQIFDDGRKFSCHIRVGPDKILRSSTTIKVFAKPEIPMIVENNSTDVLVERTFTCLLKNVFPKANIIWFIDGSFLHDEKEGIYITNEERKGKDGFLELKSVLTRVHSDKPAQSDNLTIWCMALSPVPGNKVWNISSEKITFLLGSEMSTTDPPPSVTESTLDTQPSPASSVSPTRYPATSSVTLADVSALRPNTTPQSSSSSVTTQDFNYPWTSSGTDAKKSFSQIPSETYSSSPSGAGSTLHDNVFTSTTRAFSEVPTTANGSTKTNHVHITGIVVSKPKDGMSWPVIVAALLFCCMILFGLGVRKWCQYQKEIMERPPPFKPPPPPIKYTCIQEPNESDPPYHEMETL

[3] = molecular target: T3, wild type full-length cynomolgus monkey TIGIT expressed on CHO cells (cynomolgus monkey, UniProt A0A7N9I9V4 89-312); assay: flow cytometry, blocking of human CD155-Fc-PE binding to CHO cells expressing cynomolgus TIGIT
T3 construct: whole, on cells; also called cynomolgus TIGIT-CHO cells

[4] = molecular target: T3, wild type full-length cynomolgus monkey …; assay: flow cytometry on CHO cells expressing cynomolgus TIGIT, PE anti-human IgG Fc detection
[5] = molecular target: T4, full-length human FcγRIIIa variant V/V expressed on CHO cells (human, UniProt P08637 17-254); assay: flow cytometry, human FcγRIIIa (V/V) CHO cells, 2 experiments
T4 construct: whole, on cells; also called human FcγRIIIa-CHO (variant V/V); human FcγRIIIa (V/V) CHO cells
Method: For the antibody binding assay, a frozen aliquot of human FcγRIIIa-CHO cells (variant V/V or variant F/F) was thawed at 37° C. and then transferred to a tube containing DPBS supplemented with 0.5% Bovine Serum Albumin and 0.05% Sodium Azide (FACS Buffer). Cells were centrifuged at 300 g for five minutes. The supernatant was discarded, and cells resuspended in FACS buffer were seeded in a 96-well U-bottom tissue culture plate at a density of 2×10⁵ cells per well in 50 μL. In a separate microplate, a 2× concentrated intermediate stock of each antibody was prepared. Antibodies were serially diluted 1-to-4 in FACS buffer. A total of 11 working dilutions ranging from 60 μg/mL to 0.000057 μg/mL were prepared. Fifty microlitres of each dilution were then transferred to the microplate containing human FcγRIIIa-CHO (variant V/V or variant F/F) cells. The cells were then incubated for 45 minutes at 4° C. […] After a 30-minute incubation on ice, the cells were washed twice with cold FACS Buffer, and the cells were analyzed by flow cytometry (BD LSR Fortessa Flow Cytometer). The data were analyzed using the FlowJo software by sequentially gating the FSC-A vs. SSC-A, and SSC-H vs. SSC-A. Mean fluorescence intensity (MFI) values for PE were calculated, and the data were plotted by GraphPad Prism software.

T3 sequence (A0A7N9I9V4 entry or part of it): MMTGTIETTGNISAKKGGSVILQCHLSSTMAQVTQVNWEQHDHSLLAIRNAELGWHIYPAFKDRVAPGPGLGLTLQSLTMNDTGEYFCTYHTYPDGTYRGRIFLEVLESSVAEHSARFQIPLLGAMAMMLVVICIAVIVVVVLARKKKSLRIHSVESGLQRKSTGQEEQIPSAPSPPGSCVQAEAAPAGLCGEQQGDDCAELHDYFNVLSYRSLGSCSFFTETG
T4 sequence (P08637 other isoform, or with tags, fused parts or gaps mutant limits assumed): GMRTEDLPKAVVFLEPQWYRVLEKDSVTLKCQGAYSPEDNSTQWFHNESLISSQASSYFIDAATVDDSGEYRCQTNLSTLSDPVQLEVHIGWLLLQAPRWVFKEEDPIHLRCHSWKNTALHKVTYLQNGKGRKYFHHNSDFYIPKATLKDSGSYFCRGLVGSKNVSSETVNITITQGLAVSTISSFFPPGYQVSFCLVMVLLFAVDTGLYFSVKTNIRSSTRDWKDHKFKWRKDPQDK

Kd [1]: 48 nM
koff [1]: 0.00379 s⁻¹
kon [1]: 79000 M⁻¹ s⁻¹
EC50 [2]: 1.04 µg/mL
IC50 (read off the curve) [3]: ~2 µg/mL
B1: anti-TIGIT×CD96 multispecific molecule BA123 (bispecific antibody, human IgG1, kappa, lambda)
heavy 1: QVQLVQSGAEVKKPGASVKVSCKASGYTFTSYGISWVRQAPGQGLEWMGWISAYNANTNYAQKLQGRVTMTTDTSTSTAYMELRSLRSDDTAVYYCARSAGVLGGMDVWGRGTLVTVSSASTKGPSVFPLAPSSKSTSGGTAALGCLVKDYFPEPVTVSWNSGALTSGVHTFPAVLQSSGLYSLSSVVTVPSSSLGTQTYICNVNHKPSNTKVDKRVEPKSCDKTHTCPPCPAPELLGGPDVFLFPPKPKDTLMISRTPEVTCVVVDVSHEDPEVKFNWYVDGVEVHNAKTKPREEQYNSTYRVVSVLTVLHQDWLNGKEYKCKVSNKALPAPIEKTISKAKGQPREPQVYTLPPSREEMTKNQVSLSCAVKGFYPSDIAVEWESNGQPENNYKTTPPVLDSDGSFFLVSKLTVDKSRWQQGNVFSCSVMHEALHNHYTQKSLSLSPG
light 1: not shown
heavy 2: EVQLVQSGAEVKKPGSSVKVSCKASGYTFASYGISWVRQAPGQGLEWMGGITPFFNRVDVAEKFQGRVTITADKSTSTAYIELSSLRSEDTAVYYCARDLRRGGVGDAFDIWGRGTLVTVSSASTKGPSVFPLAPSSKSTSGGTAALGCLVKDYFPEPVTVSWNSGALTSGVHTFPAVLQSSGLYSLSSVVTVPSSSLGTQTYICNVNHKPSNTKVDKRVEPKSCDKTHTCPPCPAPELLGGPDVFLFPPKPKDTLMISRTPEVTCVVVDVSHEDPEVKFNWYVDGVEVHNAKTKPREEQYNSTYRVVSVLTVLHQDWLNGKEYKCKVSNKALPLPEEKTISKAKGQPREPQVYTLPPSREEMTKNQVSLWCLVKGFYPSDIAVEWESNGQPENNYKTTPPVLDSDGSFFLYSKLTVDKSRWQQGNVFSCSVMHEALHNHYTQKSLSLSPG
light 2: QSALTQPRSVSGSPGQSVTISCTGTSPDVGSHAYRSWYQQHPGKAPKLMIYEVSYRPSGVSNRFSGSKSGNTASLTISGLQAEDEADYYCSSYPPSSATVFGAGTKLTVLGQPKAAPSVTLFPPSSEELQANKATLVCLISDFYPGAVTVAWKADSSPVKAGVETTTPSKQSNNKYAASSYLSLTPEQWKSHRSYSCQVTHEGSTVEKTVAPTEC
notes: copies: 1 + 1 + 1 + 1

EC50 (read off the curve) [4]: ~0.2 µg/mL
B2: anti-TIGIT×CD96 multispecific molecule BA127 (bispecific antibody, human IgG1, kappa, lambda)
heavy 1: QVQLVQSGAEVKKPGASVKVSCKASGYTFTTYALHWVRQAPGQRLEWMGWINTGSGDTKYSQKFQGRVTITRDTSASTAYMELSSLRSEDTAVYYCARSLGVYYGMDVWGQGTLVTVSSASTKGPSVFPLAPSSKSTSGGTAALGCLVKDYFPEPVTVSWNSGALTSGVHTFPAVLQSSGLYSLSSVVTVPSSSLGTQTYICNVNHKPSNTKVDKRVEPKSCDKTHTCPPCPAPELLGGPDVFLFPPKPKDTLMISRTPEVTCVVVDVSHEDPEVKFNWYVDGVEVHNAKTKPREEQYNSTYRVVSVLTVLHQDWLNGKEYKCKVSNKALPAPIEKTISKAKGQPREPQVYTLPPSREEMTKNQVSLSCAVKGFYPSDIAVEWESNGQPENNYKTTPPVLDSDGSFFLVSKLTVDKSRWQQGNVFSCSVMHEALHNHYTQKSLSLSPG
light 1: not shown
heavy 2: B1 heavy 2
light 2: B1 light 2
notes: Anti-CD96 arm = BA139, anti-TIGIT arm = BA150; copies: 1 + 1 + 1 + 1

EC50 [5]: 0.0455 µg/mL
B3: anti-TIGIT monospecific antibody BA148 (antibody, human IgG1, lambda)
heavy: EVQLVQSGAEVKKPGSSVKVSCKASGYTFASYGISWVRQAPGQGLEWMGGITPFFNRVDVAEKFQGRVTITADKSTSTAYIELSSLRSEDTAVYYCARDLRRGGVGDAFDIWGRGTLVTVSSASTKGPSVFPLAPSSKSTSGGTAALGCLVKDYFPEPVTVSWNSGALTSGVHTFPAVLQSSGLYSLSSVVTVPSSSLGTQTYICNVNHKPSNTKVDKRVEPKSCDKTHTCPPCPAPELLGGPDVFLFPPKPKDTLMISRTPEVTCVVVDVSHEDPEVKFNWYVDGVEVHNAKTKPREEQYNSTYRVVSVLTVLHQDWLNGKEYKCKVSNKALPLPEEKTISKAKGQPREPQVYTLPPSREEMTKNQVSLTCLVKGFYPSDIAVEWESNGQPENNYKTTPPVLDSDGSFFLYSKLTVDKSRWQQGNVFSCSVMHEALHNHYTQKSLSLSPGK
light: B1 light 2
notes: IgG1; also called anti-TIGIT IgG1 antibody BA148
